Results reported in article PMC12469269 (2025).

Tests used:
Experiment in all cases: SPR
Mortalin peptide #62 = Mortalin peptide #62 (UniProt P38646)
Mortalin peptide #56 = Mortalin peptide #56 (UniProt P38646)
[1] = target: T1, Recombinant Human GRP75/HSPA9B/Mortalin His Protein (human, UniProt P38646 47-679)
[2] = target: T2, Recombinant Human Vimentin Protein, CF (human, UniProt P08670 1-466)
[3] = target: T1, Recombinant Human GRP75/HSPA9B/Mortalin …; remark: listed apart in the source
[4] = target: T2, Recombinant Human Vimentin Protein, CF; remark: listed apart in the source

T1 sequence (P38646 47-679): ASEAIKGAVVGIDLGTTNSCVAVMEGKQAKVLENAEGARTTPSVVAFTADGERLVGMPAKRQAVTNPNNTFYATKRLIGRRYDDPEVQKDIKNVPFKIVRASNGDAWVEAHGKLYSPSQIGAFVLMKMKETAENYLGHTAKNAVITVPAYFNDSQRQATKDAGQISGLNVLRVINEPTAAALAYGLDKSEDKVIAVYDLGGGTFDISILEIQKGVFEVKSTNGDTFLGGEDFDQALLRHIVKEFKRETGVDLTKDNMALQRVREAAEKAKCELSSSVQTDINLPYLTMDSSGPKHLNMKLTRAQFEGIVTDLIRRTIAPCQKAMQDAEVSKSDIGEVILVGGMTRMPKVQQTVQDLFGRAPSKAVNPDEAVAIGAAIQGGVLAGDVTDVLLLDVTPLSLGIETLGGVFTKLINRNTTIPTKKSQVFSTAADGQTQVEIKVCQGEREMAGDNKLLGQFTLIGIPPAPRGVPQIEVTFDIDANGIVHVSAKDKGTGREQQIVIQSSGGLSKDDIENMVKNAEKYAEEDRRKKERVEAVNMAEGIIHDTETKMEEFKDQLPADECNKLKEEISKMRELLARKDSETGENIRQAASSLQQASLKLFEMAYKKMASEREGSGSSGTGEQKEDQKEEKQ
T2 sequence (P08670 whole entry): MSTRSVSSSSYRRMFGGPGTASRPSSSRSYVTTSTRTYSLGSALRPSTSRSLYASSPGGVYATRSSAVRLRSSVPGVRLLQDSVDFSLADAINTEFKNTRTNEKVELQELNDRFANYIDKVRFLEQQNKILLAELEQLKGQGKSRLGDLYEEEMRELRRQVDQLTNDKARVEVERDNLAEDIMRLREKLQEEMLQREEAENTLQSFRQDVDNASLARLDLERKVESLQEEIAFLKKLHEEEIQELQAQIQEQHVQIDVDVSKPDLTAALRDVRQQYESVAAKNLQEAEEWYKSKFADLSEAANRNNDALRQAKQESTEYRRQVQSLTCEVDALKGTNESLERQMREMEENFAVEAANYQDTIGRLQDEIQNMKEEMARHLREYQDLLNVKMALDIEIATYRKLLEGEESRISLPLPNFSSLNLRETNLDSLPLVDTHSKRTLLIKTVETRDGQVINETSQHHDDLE

Row | Binder | Kd (Mortalin peptide #62) | koff (Mortalin peptide #62) | Kd (Mortalin peptide #56) | koff (Mortalin peptide #56) | koff [1] | koff [2] | Kd [3] | Kd [4]
1 | HIV-1 Nef protein (natural protein) MGGKWSKSSVVGWPTVRERMRRAEPAADGVGAASRDLEKHGAITSSNTAATNAACAWLEAQEEEEVGFPVTPQVPLRPMTYKAAVDLSHFLKEKGGLEGLIHSQRRQDILDLWIYHTQGYFPDWQNYTPGPGVRYPLTFGWCYKLVPVEPDKVEEANKGENTSLLHPVSLHGMDDPEREVLEWRFDSRLAFHHVARELHPEYFKNC | 1.9 µM | 0.0037 s⁻¹ | 76.9 µM | 0.0285 s⁻¹ | 0.0226 s⁻¹ | 0.000901 s⁻¹ | – | –
2 | VGFPV [SMRwt peptide] | – | – | – | – | 0.0152 s⁻¹ | 0.0566 s⁻¹ | 22.6 µM | 8.8 µM
